Measured values as given in patent publication US20170267766A1.

How the values were obtained:
[1] = biological target: rhIGF-1R protein (R&D Systems, Cat No 391-GR) (human) (UniProt P08069); test: ELISA, coated rh IGF-1R, 5 ug/ml
[2] = biological target: rmIGF-1R protein (R&D Systems, cat No 6630-GR/Fc) (murine) (UniProt Q60751); test: ELISA, coated rm IGF-1R, 5 ug/ml
[3] = biological target: rhIR protein (R&D Systems, cat No 1544-IR/CF) (human) (UniProt P06213); test: ELISA, coated rh Insulin R, 5 ug/ml
Chain of rhIR protein (R&D Systems, cat No 1544-IR/CF) (human) (P06213 other isoform, or with tags, fused parts or gaps limits assumed): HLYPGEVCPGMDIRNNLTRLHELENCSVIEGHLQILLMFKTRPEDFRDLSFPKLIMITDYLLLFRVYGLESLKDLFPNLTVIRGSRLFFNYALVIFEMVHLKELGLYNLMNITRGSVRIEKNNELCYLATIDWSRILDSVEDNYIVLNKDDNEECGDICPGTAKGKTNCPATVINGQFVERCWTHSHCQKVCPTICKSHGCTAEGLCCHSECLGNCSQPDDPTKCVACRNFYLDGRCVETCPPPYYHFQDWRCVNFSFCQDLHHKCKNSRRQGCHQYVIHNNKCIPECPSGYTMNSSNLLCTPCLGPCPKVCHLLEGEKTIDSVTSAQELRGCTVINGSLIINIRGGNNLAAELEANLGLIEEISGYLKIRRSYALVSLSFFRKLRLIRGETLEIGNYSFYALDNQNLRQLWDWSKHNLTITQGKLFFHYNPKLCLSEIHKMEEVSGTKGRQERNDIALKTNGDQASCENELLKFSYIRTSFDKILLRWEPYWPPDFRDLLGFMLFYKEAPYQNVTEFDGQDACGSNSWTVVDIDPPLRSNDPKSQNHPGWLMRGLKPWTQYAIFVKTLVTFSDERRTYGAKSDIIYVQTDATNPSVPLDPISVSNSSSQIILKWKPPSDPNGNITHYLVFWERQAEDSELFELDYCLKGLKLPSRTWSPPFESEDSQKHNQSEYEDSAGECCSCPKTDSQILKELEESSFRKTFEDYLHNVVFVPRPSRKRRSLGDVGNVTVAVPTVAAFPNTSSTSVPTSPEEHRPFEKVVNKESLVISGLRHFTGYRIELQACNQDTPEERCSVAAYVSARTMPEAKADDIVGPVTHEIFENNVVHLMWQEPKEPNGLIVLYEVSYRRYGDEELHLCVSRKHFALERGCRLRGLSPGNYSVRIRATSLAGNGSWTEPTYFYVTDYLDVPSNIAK

Chain of rmIGF-1R protein (R&D Systems, cat No 6630-GR/Fc) (murine) (Q60751 31-936): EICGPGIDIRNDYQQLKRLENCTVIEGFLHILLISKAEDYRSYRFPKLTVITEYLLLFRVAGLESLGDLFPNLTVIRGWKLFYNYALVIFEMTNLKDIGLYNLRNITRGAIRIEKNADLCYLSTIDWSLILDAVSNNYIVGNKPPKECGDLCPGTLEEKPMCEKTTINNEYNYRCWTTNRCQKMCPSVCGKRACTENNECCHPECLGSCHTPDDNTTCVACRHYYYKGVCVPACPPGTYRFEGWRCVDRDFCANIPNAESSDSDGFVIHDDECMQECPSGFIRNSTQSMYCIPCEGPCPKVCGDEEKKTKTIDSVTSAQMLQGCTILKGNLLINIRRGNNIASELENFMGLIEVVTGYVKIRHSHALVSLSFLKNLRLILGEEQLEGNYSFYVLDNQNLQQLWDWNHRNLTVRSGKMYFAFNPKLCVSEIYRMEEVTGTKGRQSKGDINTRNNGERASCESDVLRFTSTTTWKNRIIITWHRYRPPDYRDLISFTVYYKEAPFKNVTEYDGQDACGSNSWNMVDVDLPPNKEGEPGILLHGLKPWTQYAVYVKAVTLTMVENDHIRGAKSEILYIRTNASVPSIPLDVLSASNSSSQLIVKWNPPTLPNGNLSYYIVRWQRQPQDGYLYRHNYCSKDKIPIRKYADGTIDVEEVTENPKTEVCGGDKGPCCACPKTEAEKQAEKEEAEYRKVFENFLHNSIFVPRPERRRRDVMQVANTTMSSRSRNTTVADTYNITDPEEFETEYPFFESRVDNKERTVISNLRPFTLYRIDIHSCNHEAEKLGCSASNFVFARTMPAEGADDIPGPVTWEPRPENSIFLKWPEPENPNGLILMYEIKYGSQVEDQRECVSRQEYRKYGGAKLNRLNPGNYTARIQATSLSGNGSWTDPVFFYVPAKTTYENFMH

D.O 450 nm [1]: 0.093 D.O 450 nm | D.O 450 nm [2]: 0.116 D.O 450 nm | D.O 450 nm [3]: 0.127 D.O 450 nm
Substance: mIgG1 (antibody)
